In general, Kd refers to a measure of binding affinity in units of concentration. The low end stands for tighter binding, the high end for weaker binding. As a reminder, the koff is the rate constant with which the complex falls apart. A higher koff goes with a short-lived complex. In general, kon refers to the second-order rate constant of association. One may read the IC50 as the point on the concentration scale where inhibition reaches its midpoint. A high value points to weaker potency.

Test [1] concerns the target T1, human serum albumin (human, UniProt P02768 25-609).
T1 construct: Immobilised on SPR chips; also added in solution to the cell assays; also called HSA; humanSA
Nature of the test: SPR, Langmuir 1:1 or steady state model, pH 7.4. On the technique in general: In SPR one partner is held on a chip, and binding of the other changes the refractive index at the surface.

Test [2] concerns the target T1, human serum albumin. As to the kind of experiment: SPR, pH 5.5; pH 5.5.
Test [3] concerns the target T1, human serum albumin. As to the kind of experiment: SPR, Langmuir 1:1 or steady state model, pH 5.5.
Test [4] addresses T2, FcRn-L322A/L323A expressed in HEK293 cells (UniProt P55899 24-365). Nature of the test: cell FcRn occupancy, flow cytometry, free FcRn stained with anti-FcRn-Fab AF647, HEK293-FcRn-L322A/L323A cells, with HSA. A general note: A flow cytometer gives signals particle by particle.
Test [5] has as its target T1, human serum albumin. Nature of the test: SPR, pH 7.4.
In test [6] the target is T2, FcRn-L322A/L323A expressed in HEK293 …. Nature of the test: cell FcRn occupancy, flow cytometry, free FcRn stained with anti-FcRn-Fab AF647, HEK293-FcRn-L322A/L323A cells, without HSA.
Test [7] addresses T1, human serum albumin. As to the kind of experiment: SPR, pH 5.5.
The target of test [8] is T3, neonatal Fc receptor (FcRn), endogenous in U937 cells (UniProt P55899 24-365; P61769 21-119).
T3 construct: whole, on cells; Free FcRn was stained inside fixed and permeabilised cells
As to the kind of experiment: cell FcRn occupancy, flow cytometry, free FcRn stained with labelled anti-FcRn Fab, U937 cells, 2,500 nM HSA (SD 1.4).
Experimental: (§1) Next, FcRn occupancy was tested using a cell-based FcRn occupancy assay in the presence or absence of albumin. Briefly, test articles (Fc-ABDEG-VHH molecules) were pre-incubated with HSA for 30 minutes at 37° C., pH 7.4 in FACS buffer. Cells (HEK FcRn mut or U937) were plated in a 96-well microplate. Cells were incubated with test article for two hours, shaking at 37° C., pH 7.4 in FACS buffer. Plates were then transferred immediately on ice and cells were collected by centrifugation at 4° C. Cells stained for viability in FACS buffer at pH 6 and then fixed/permeabilized in permeabilization buffer at pH 6. […] Cells were analyzed by FACS, ensuring that they are kept on ice until immediately prior to analysis.

Test [9] has as its target T3, neonatal Fc receptor (FcRn), endogenous …. Nature of the test: cell FcRn occupancy, flow cytometry, free FcRn stained with anti-FcRn-Fab AF647, U937 cells, with HSA.
Experimental: as §1
The target of test [10] is T1, human serum albumin. As to the kind of experiment: not stated there (refers to the earlier SPR).
The target of test [11] is T1, human serum albumin. As to the kind of experiment: SPR Biacore 3000, HSA on chip, pH 5.5.
The target of test [12] is T1, human serum albumin. Nature of the test: SPR Biacore 3000, HSA on chip, ratio of R0 at pH 5.5 to pH 7.4.
In test [13] the target is T1, human serum albumin. Nature of the test: SPR Biacore 3000, HSA on chip, pH 7.4.

T3 sequence (P55899 24-365 limits assumed, chain 1 of 2): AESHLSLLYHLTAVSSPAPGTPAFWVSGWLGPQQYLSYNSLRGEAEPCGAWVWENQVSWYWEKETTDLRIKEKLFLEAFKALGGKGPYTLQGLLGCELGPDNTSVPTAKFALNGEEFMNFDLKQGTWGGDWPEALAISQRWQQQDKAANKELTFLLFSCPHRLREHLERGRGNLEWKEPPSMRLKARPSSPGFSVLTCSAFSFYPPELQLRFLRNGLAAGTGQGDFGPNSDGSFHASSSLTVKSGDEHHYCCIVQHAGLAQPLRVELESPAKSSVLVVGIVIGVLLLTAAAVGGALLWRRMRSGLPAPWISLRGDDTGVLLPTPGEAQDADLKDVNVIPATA
T3 sequence (P61769 21-119 limits assumed, chain 2 of 2): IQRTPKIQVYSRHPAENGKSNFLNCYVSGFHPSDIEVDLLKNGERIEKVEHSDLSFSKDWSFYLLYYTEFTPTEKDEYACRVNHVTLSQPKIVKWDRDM
T2 sequence (P55899 24-365 L343A/L344A, chain 1 of 2): as the sequence (P55899 24-365 limits assumed, chain 1 of 2) above, with L320A, L321A counted along it
T2 sequence (chain, as listed by the source L322A L323A, chain 2 of 2): as the sequence (P61769 21-119 limits assumed, chain 2 of 2) above

B1: OA-Fc-ABDEG-Alb23 (Fc fusion)
chain 1: DKTHTCPPCPAPELLGGPSVFLFPPKPKDTLYITREPEVTCVVVDVSHEDPEVKFNWYVDGVEVHNAKTKPREEQYNSTYRVVSVLTVLHQDWLNGKEYKCKVSNKALPAPIEKTISKAKGQPREPQVYTLPPSRDELTKNQVSLWCLVKGFYPSDIAVEWESNGQPENNYKTTPPVLDSDGSFFLYSKLTVDKSRWQQGNVFSCSVMHEALKFHYTQKSLSLSPGGGGGSGGGGSGGGGSGGGGSEVQLLESGGGLVQPGGSLRLSCAASGFTFRSFGMSWVRQAPGKGPEWVSSISGSGSDTLYADSVKGRFTISRDNSKNTLYLQMNSLRPEDTAVYYCTIGGSLSRSSQGTLVTVSS
chain 2: DKTHTCPPCPAPELLGGPSVFLFPPKPKDTLYITREPEVTCVVVDVSHEDPEVKFNWYVDGVEVHNAKTKPREEQYNSTYRVVSVLTVLHQDWLNGKEYKCKVSNKALPAPIEKTISKAKGQPREPQVYTLPPSRDELTKNQVSLSCAVKGFYPSDIAVEWESNGQPENNYKTTPPVLDSDGSFFLVSKLTVDKSRWQQGNVFSCSVMHEALKFHYTQKSLSLSPG
notes: also called OA-Fc-ABDEG-20GS-Alb23; ABDEG-20GS-Alb23
As to B1, the Kd in [1] came out at 147 nM; in test [3], 66.5 nM; in [5] it was 147 nM; in test [7], 66.5 nM. In addition, the koff was found to be 0.00336 s⁻¹ in test [1], 0.00186 s⁻¹ in test [3], 0.00336 s⁻¹ in [5] and 0.00186 s⁻¹ in test [7]. In addition, the kon in [1] was 22900 M⁻¹ s⁻¹; in test [2], 27900 M⁻¹ s⁻¹; in [3], 27900 M⁻¹ s⁻¹; in test [5], 22900 M⁻¹ s⁻¹. Besides, the “% max occupancy” value in test [4] stood at 67.9%. Also, the results for the IC50 in test [4] and in test [6] were 11.5 nM and 6.4 nM, respectively.

B2: efgartigimod (human IgG1 Fc fragment with ABDEG mutations) (other)
chain: DKTHTCPPCPAPELLGGPSVFLFPPKPKDTLYITREPEVTCVVVDVSHEDPEVKFNWYVDGVEVHNAKTKPREEQYNSTYRVVSVLTVLHQDWLNGKEYKCKVSNKALPAPIEKTISKAKGQPREPQVYTLPPSRDELTKNQVSLTCLVKGFYPSDIAVEWESNGQPENNYKTTPPVLDSDGSFFLYSKLTVDKSRWQQGNVFSCSVMHEALKFHYTQKSLSLSPG
notes: residues 1-226 (my count) are the Fc part; also called ARGX-113; efgartigimod alfa
As for B2, the entries for the “% max occupancy” value in test [4] and in test [9] were 57.7% and 56.8%, respectively. Also, the IC50 in test [4] stood at 16.1 nM; in test [6], 6.8 nM; in test [8] it was 2.9 nM; in [9] it was 4.8 nM.

B3: TA-Fc-ABDEG-Alb23 (Fc fusion)
chain: DKTHTCPPCPAPELLGGPSVFLFPPKPKDTLYITREPEVTCVVVDVSHEDPEVKFNWYVDGVEVHNAKTKPREEQYNSTYRVVSVLTVLHQDWLNGKEYKCKVSNKALPAPIEKTISKAKGQPREPQVYTLPPSRDELTKNQVSLTCLVKGFYPSDIAVEWESNGQPENNYKTTPPVLDSDGSFFLYSKLTVDKSRWQQGNVFSCSVMHEALKFHYTQKSLSLSPGGGGGSGGGGSGGGGSGGGGSEVQLLESGGGLVQPGGSLRLSCAASGFTFRSFGMSWVRQAPGKGPEWVSSISGSGSDTLYADSVKGRFTISRDNSKNTLYLQMNSLRPEDTAVYYCTIGGSLSRSSQGTLVTVSS
notes: also called TA-ABDEG-Alb23
As for B3, in [4], the “% max occupancy” value was found to be 63.8% and the IC50 amounted to 33 nM. Moreover, in [6], the IC50 stood at 20.2 nM.

B4: TA-Alb23-Fc-ABDEG (Fc fusion)
chain: EVQLLESGGGLVQPGGSLRLSCAASGFTFRSFGMSWVRQAPGKGPEWVSSISGSGSDTLYADSVKGRFTISRDNSKNTLYLQMNSLRPEDTAVYYCTIGGSLSRSSQGTLVTVSSDKTHTCPPCPAPELLGGPSVFLFPPKPKDTLYITREPEVTCVVVDVSHEDPEVKFNWYVDGVEVHNAKTKPREEQYNSTYRVVSVLTVLHQDWLNGKEYKCKVSNKALPAPIEKTISKAKGQPREPQVYTLPPSRDELTKNQVSLTCLVKGFYPSDIAVEWESNGQPENNYKTTPPVLDSDGSFFLYSKLTVDKSRWQQGNVFSCSVMHEALKFHYTQKSLSLSPG
notes: Alb23 VHH on the N-terminus of both Fc domains; also called two-armed N-terminal anti-HSA-Fc-ABDEG
For B4, in test [4], the “% max occupancy” value turned out to be 43.4% and half-maximal inhibition (IC50) was put at 78.3 nM. The molecule further gave an IC50 in [6] of 19.9 nM.

B5: Alb23 F32A VHH fragment (VHH)
VHH: EVQLLESGGGLVQPGGSLRLSCAASGFTFRSAGMSWVRQAPGKGPEWVSSISGSGSDTLYADSVKGRFTISRDNSKNTLYLQMNSLRPEDTAVYYCTIGGSLSRSSQGTLVTVSS
notes: also called Alb23-SM
For the molecule B5, in test [10], the “fold lower affinity against parental Alb23 VHH” value is approximately 300 fold.

B6: TA-Fc-ABDEG-2H11 (2H11 parental fused at the C-terminus of Fc-ABDEG) (Fc fusion)
chain: DKTHTCPPCPAPELLGGPSVFLFPPKPKDTLYITREPEVTCVVVDVSHEDPEVKFNWYVDGVEVHNAKTKPREEQYNSTYRVVSVLTVLHQDWLNGKEYKCKVSNKALPAPIEKTISKAKGQPREPQVYTLPPSRDELTKNQVSLTCLVKGFYPSDIAVEWESNGQPENNYKTTPPVLDSDGSFFLYSKLTVDKSRWQQGNVFSCSVMHEALKFHYTQKSLSLSPGGGGGSGGGGSGGGGSGGGGSELQVVESGGGLVQAGGSLRLSCAASGRTFRSNTMGWFRQAPGKEREFVAAITWSGGTTYYADSVKGRFAISGDNAKNTVYLQMNSLKPEDTAVYYCAAEGPKWEPWNGIYHPADFGSWGQGTQVTVSS
On to B6, for which, in test [11], the “R0 pH5.5” value came out at 351 RU and the koff was found to be 0.00016 s⁻¹. Also, in [12], the “R0 5.5/7.4” value came out at 3. Also, in test [13], the “R0 pH7.4” value worked out at 115 RU and the koff is 0.00072 s⁻¹.

B7: TA-Fc-ABDEG-2H11-v12 (Fc fusion)
chain: DKTHTCPPCPAPELLGGPSVFLFPPKPKDTLYITREPEVTCVVVDVSHEDPEVKFNWYVDGVEVHNAKTKPREEQYNSTYRVVSVLTVLHQDWLNGKEYKCKVSNKALPAPIEKTISKAKGQPREPQVYTLPPSRDELTKNQVSLTCLVKGFYPSDIAVEWESNGQPENNYKTTPPVLDSDGSFFLYSKLTVDKSRWQQGNVFSCSVMHEALKFHYTQKSLSLSPGGGGGSGGGGSGGGGSGGGGSELQVVESGGGLVQAGGSLRLSCAASGRTFRSNTMGWFRQAPGKEREFVAAITWSGGTTYYADSVKGRFAISGDNAKNTVYLQMNSLKPEDTAVYYCAAEGPKWEPWNGIAHPADFGSWGQGTQVTVSS
notes: Scaffold as for m24
Regarding B7, in test [11], the “R0 pH5.5” value is 93.9 RU and the koff stood at 9.72e-05 s⁻¹. In test [12], the “R0 5.5/7.4” value was 14.9. Moreover, in test [13], the “R0 pH7.4” value came out at 6.32 RU and the koff came out at 0.0012 s⁻¹.

B8: TA-Fc-ABDEG-2H11-v3 (Fc fusion)
chain: DKTHTCPPCPAPELLGGPSVFLFPPKPKDTLYITREPEVTCVVVDVSHEDPEVKFNWYVDGVEVHNAKTKPREEQYNSTYRVVSVLTVLHQDWLNGKEYKCKVSNKALPAPIEKTISKAKGQPREPQVYTLPPSRDELTKNQVSLTCLVKGFYPSDIAVEWESNGQPENNYKTTPPVLDSDGSFFLYSKLTVDKSRWQQGNVFSCSVMHEALKFHYTQKSLSLSPGGGGGSGGGGSGGGGSGGGGSELQVVESGGGLVQAGGSLRLSCAASGRTFRSNTMGWFRQAPGKEREFVAAITWSGGTTYYADSVKGRFAISGDNAKNTVYLQMNSLKPEDTAVYYCAAEGAKWEPWNGIYHPADFGSWGQGTQVTVSS
With B8, in [11], the “R0 pH5.5” value worked out at 164 RU and the koff turned out to be 0.000135 s⁻¹. Also, the “R0 5.5/7.4” value in test [12] is 19.9. Also, in test [13], the “R0 pH7.4” value was found to be 8.24 RU and the koff worked out at 0.0029 s⁻¹.

B9: TA-Fc-ABDEG-2H11-v16 (Fc fusion)
chain: DKTHTCPPCPAPELLGGPSVFLFPPKPKDTLYITREPEVTCVVVDVSHEDPEVKFNWYVDGVEVHNAKTKPREEQYNSTYRVVSVLTVLHQDWLNGKEYKCKVSNKALPAPIEKTISKAKGQPREPQVYTLPPSRDELTKNQVSLTCLVKGFYPSDIAVEWESNGQPENNYKTTPPVLDSDGSFFLYSKLTVDKSRWQQGNVFSCSVMHEALKFHYTQKSLSLSPGGGGGSGGGGSGGGGSGGGGSELQVVESGGGLVQAGGSLRLSCAASGRTFRSNTMGWFRQAPGKEREFVAAITWSGGTTYYADSVKGRFAISGDNAKNTVYLQMNSLKPEDTAVYYCAAEGPKWEPWNGIYHPADAGSWGQGTQVTVSS
notes: Scaffold as for m24
B9: in test [11], the “R0 pH5.5” value was determined as 8.91 RU and the koff is 0.00301 s⁻¹. Moreover, the “R0 5.5/7.4” value in test [12] worked out at 16. Also, in test [13], the “R0 pH7.4” value was 0.571 RU and the koff was determined as 0.00193 s⁻¹.

B10: TA-Fc-ABDEG-2H11-v15 (Fc fusion)
chain: DKTHTCPPCPAPELLGGPSVFLFPPKPKDTLYITREPEVTCVVVDVSHEDPEVKFNWYVDGVEVHNAKTKPREEQYNSTYRVVSVLTVLHQDWLNGKEYKCKVSNKALPAPIEKTISKAKGQPREPQVYTLPPSRDELTKNQVSLTCLVKGFYPSDIAVEWESNGQPENNYKTTPPVLDSDGSFFLYSKLTVDKSRWQQGNVFSCSVMHEALKFHYTQKSLSLSPGGGGGSGGGGSGGGGSGGGGSELQVVESGGGLVQAGGSLRLSCAASGRTFRSNTMGWFRQAPGKEREFVAAITWSGGTTYYADSVKGRFAISGDNAKNTVYLQMNSLKPEDTAVYYCAAEGPKWEPWNGIYHPAAFGSWGQGTQVTVSS
As for B10, in test [11], the “R0 pH5.5” value came to 235 RU and the koff turned out to be 0.00174 s⁻¹. Further, in test [12], the “R0 5.5/7.4” value stood at 370. Also, in test [13], the “R0 pH7.4” value turned out to be 0.635 RU and the koff worked out at 0.0025 s⁻¹.
